We go through 1 protein from article PMC4372062 (Biochemistry, 2014).

This data set concerns the molecule itself. Description: native gel or EMSA. In general terms: In EMSA bound probe runs differently from free probe, usually more slowly.

B1: Fenna–Matthews–Olson antenna protein (FMO) (natural protein, UniProt Q46393 1-366, looked up)
chain: MALFGSNDVTTAHSDYEIVLEGGSSSWGKVKARAKVNAPPASPLLPADCDVKLNVKPLDPAKGFVRISAVFESIVDSTKNKLTIEADIANETKERRISVGEGMVSVGDFSHTFSFEGSVVNLFYYRSDAVRRNVPNPIYMQGRQFHDILMKVPLDNNDLIDTWEGTVKAIGSTGAFNDWIRDFWFIGPAFTALNEGGQRISRIEVNGLNTESGPKGPVGVSRWRFSHGGSGMVDSISRWAELFPSDKLNRPAQVEAGFRSDSQGIEVKVDGEFPGVSVDAGGGLRRILNHPLIPLVHHGMVGKFNNFNVDAQLKVVLPKGYKIRYAAPQYRSQNLEEYRWSGGAYARWVEHVCKGGVGQFEILYAQ
Turning to B1, the stoichiometry N (in general, the number of molecules, sites or subunits per partner or assembly) was determined as 3.
